± gives the uncertainty stated by the source.
Experiment: protein stability index of a GFP-peptide fusion (yeast GPS) (PSI 1-4); higher = more stable; sorted into four equal gates, so the index is relative within each strain
Summary of the method: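 Sequencing reads from sorted gates were used to score each peptide. The library consisted of tiled 17-residue yeast protein peptides fused downstream of GFP on a Cherry-expressing plasmid, pooled and carried in yeast. Mid-log cultures in leucine-free medium were split into four equal gates by GFP/Cherry ratio, and each gate's plasmids were PCR-amplified and Illumina-sequenced. The protein stability index adds up, over all gates, the read frequency multiplied by the gate number.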

In the case of PIIATYGNRAEQFLETD [SRP68], the protein stability index (doa10∆) is reported as 2.09 ± 0.09, the protein stability index (pdr5∆) is reported as 2.48 ± 0.063 and the protein stability index (san1∆) is reported as 2.26 ± 0.14. It also gave a protein stability index (ubr1∆) of 2.72 ± 0.084.
For EGAEPGPPYTTDEHLIF [ISW2], the protein stability index (doa10∆) was 2.91 ± 0.043, the protein stability index (pdr5∆) was 2.99 ± 0.047 and the protein stability index (san1∆) was 2.42 ± 0.043. The protein stability index (ubr1∆) was 2.68 ± 0.037.
For PKYAKQKDKSDTYKRFK [ISW2], the protein stability index (doa10∆) was 3.12 ± 0.084, the protein stability index (pdr5∆) was 3.1 ± 0.1 and the protein stability index (san1∆) was 3.13 ± 0.11. The protein stability index (ubr1∆) was 3.23 ± 0.079.
NKSFIVDQGQIYRDRST [ITC1] gave a protein stability index (doa10∆) of 3.1 ± 0.11, a protein stability index (pdr5∆) of 3.35 ± 0.12 and a protein stability index (san1∆) of 3.32 ± 0.064. For the same sequence, the protein stability index (ubr1∆) was 3.32 ± 0.052.
ELLANKCPLLVEVDITL [GRR1] showed a protein stability index (doa10∆) of 1.44 ± 0.06, a protein stability index (pdr5∆) of 1.58 ± 0.047 and a protein stability index (san1∆) of 1.59 ± 0.082. The protein stability index (ubr1∆) was 1.47 ± 0.041.
ELSDSWRAHDSSIVAID [YGL100W/SEH1] gave a protein stability index (doa10∆) of 2.9 ± 0.084, a protein stability index (pdr5∆) of 2.72 ± 0.11 and a protein stability index (san1∆) of 3.24 ± 0.054. It also gave a protein stability index (ubr1∆) of 2.8 ± 0.08.
KLHHDLKLCLGDHSSVP [YMR129W/POM152] gave a protein stability index (doa10∆) of 2.83 ± 0.058, a protein stability index (pdr5∆) of 3.09 ± 0.054 and a protein stability index (san1∆) of 2.95 ± 0.053. The protein stability index (ubr1∆) was 2.96 ± 0.042.
With TFSYVDSSLQPEYFESP [YMR129W/POM152] the protein stability index (doa10∆) was 3.22 ± 0.2, the protein stability index (pdr5∆) was 3.07 ± 0.13 and the protein stability index (ubr1∆) was 3.08 ± 0.22.
Work on DYSRKQLGYGKFLILNE [NUT1] yielded a protein stability index (doa10∆) of 2.97 ± 0.2, a protein stability index (pdr5∆) of 2.31 ± 0.14 and a protein stability index (ubr1∆) of 3.18 ± 0.22.
SFSDENSDDFFMDNSYD [ESC2] gave a protein stability index (doa10∆) of 1.97 ± 0.068, a protein stability index (pdr5∆) of 1.8 ± 0.11 and a protein stability index (san1∆) of 2.63 ± 0.1. It also gave a protein stability index (ubr1∆) of 1.81 ± 0.062.
Sequence DYKGAKLNVVGWFHSHP [RRI1] has a protein stability index (doa10∆) of 2.81 ± 0.097, a protein stability index (pdr5∆) of 2.49 ± 0.1 and a protein stability index (san1∆) of 2.38 ± 0.18. The protein stability index (ubr1∆) was 2.59 ± 0.061.
For NDEKRVKEEYDIWQSRD [YIL149C/MLP2], the protein stability index (doa10∆) was 3.22 ± 0.062, the protein stability index (pdr5∆) was 3.06 ± 0.078 and the protein stability index (san1∆) was 3.25 ± 0.049. The protein stability index (ubr1∆) was 3.39 ± 0.084.
TVAVLPPNWKYESATAS [RPS13] showed a protein stability index (doa10∆) of 1.63 ± 0.036, a protein stability index (pdr5∆) of 2.06 ± 0.037 and a protein stability index (san1∆) of 2.07 ± 0.055. The protein stability index (ubr1∆) was 1.97 ± 0.028.
KRTIRIKTQQHILPEVP [TAF14] gave a protein stability index (doa10∆) of 1.92 ± 0.059, a protein stability index (pdr5∆) of 2.02 ± 0.049 and a protein stability index (san1∆) of 2.2 ± 0.066. The protein stability index (ubr1∆) was 2.07 ± 0.063.
For IAHNISAKNRVVILARA [RPL32], the protein stability index (doa10∆) was 1.66 ± 0.043, the protein stability index (pdr5∆) was 1.71 ± 0.058 and the protein stability index (san1∆) was 1.76 ± 0.085. For the same sequence, the protein stability index (ubr1∆) was 1.52 ± 0.043.
In the case of TKGENYQLVKTLGEQLI [FAS2], the protein stability index (doa10∆) is reported as 3.06 ± 0.11, the protein stability index (pdr5∆) is reported as 3.24 ± 0.13 and the protein stability index (san1∆) is reported as 2.6 ± 0.13. For the same sequence, the protein stability index (ubr1∆) was 3.27 ± 0.15.
QHLRNEHGMNAPSVPEF [SNF2] gave a protein stability index (doa10∆) of 2.86 ± 0.1, a protein stability index (pdr5∆) of 3.56 ± 0.13 and a protein stability index (san1∆) of 2.96 ± 0.08. For the same sequence, the protein stability index (ubr1∆) was 3.09 ± 0.061.
With NEYRLAFYQVTPEEDEE [RPL22A] the protein stability index (doa10∆) was 2.52 ± 0.077, the protein stability index (pdr5∆) was 2.61 ± 0.071 and the protein stability index (san1∆) was 2.75 ± 0.073. The protein stability index (ubr1∆) was 2.69 ± 0.087.
Sequence VEHLLRDVRDQAAGGLS [RPN8] has a protein stability index (doa10∆) of 2.7 ± 0.13, a protein stability index (pdr5∆) of 1.99 ± 0.17 and a protein stability index (san1∆) of 2.81 ± 0.17. The protein stability index (ubr1∆) was 1.07 ± 0.12.
FDEFMNVVIDEAVEIPV [SME1] showed a protein stability index (doa10∆) of 2.86 ± 0.056, a protein stability index (pdr5∆) of 3.19 ± 0.066 and a protein stability index (san1∆) of 2.94 ± 0.071. For the same sequence, the protein stability index (ubr1∆) was 2.9 ± 0.045.
Work on VSFNSKQNEQLHVEQLS [SMC3] yielded a protein stability index (doa10∆) of 2.27 ± 0.071, a protein stability index (pdr5∆) of 2.72 ± 0.087 and a protein stability index (san1∆) of 2.47 ± 0.1. For the same sequence, the protein stability index (ubr1∆) was 2.85 ± 0.066.
For QTYGETTAVDALQKGLK [RPC19], the protein stability index (doa10∆) was 2.03 ± 0.13, the protein stability index (pdr5∆) was 1.1 ± 0.12 and the protein stability index (san1∆) was 1.16 ± 0.29. The protein stability index (ubr1∆) was 1.14 ± 0.082.
In the case of LIKQVPRLLGPQLSKAG [RPL1A], the protein stability index (doa10∆) is reported as 1.98 ± 0.068, the protein stability index (pdr5∆) is reported as 1.73 ± 0.06 and the protein stability index (san1∆) is reported as 1.78 ± 0.081. It also gave a protein stability index (ubr1∆) of 1.6 ± 0.059.
For SELIRTTLDAEKVFTQG [FAS1], the protein stability index (doa10∆) was 3.14 ± 0.067, the protein stability index (pdr5∆) was 3.16 ± 0.066 and the protein stability index (san1∆) was 3.22 ± 0.079. The protein stability index (ubr1∆) was 3.08 ± 0.07.
DEIKAQRKEIKDRISSC [SMC4] showed a protein stability index (doa10∆) of 3 ± 0.062, a protein stability index (pdr5∆) of 3.03 ± 0.054 and a protein stability index (san1∆) of 3.13 ± 0.061. The protein stability index (ubr1∆) was 3.07 ± 0.053.
In the case of TNDDSIKNLTVQLSPSN [RGR1], the protein stability index (doa10∆) is reported as 2.8 ± 0.074, the protein stability index (pdr5∆) is reported as 2.79 ± 0.059 and the protein stability index (san1∆) is reported as 2.56 ± 0.056. The protein stability index (ubr1∆) was 2.58 ± 0.05.
With ELESMLEDLKNTKEIAV [RRP6] the protein stability index (doa10∆) was 2.18 ± 0.08, the protein stability index (pdr5∆) was 2.27 ± 0.051 and the protein stability index (san1∆) was 2.33 ± 0.063. It also gave a protein stability index (ubr1∆) of 2.61 ± 0.044.
In the case of FLDGIYVSHKGFITEDL [RPL9A], the protein stability index (doa10∆) is reported as 2.38 ± 0.081, the protein stability index (pdr5∆) is reported as 2.62 ± 0.063 and the protein stability index (san1∆) is reported as 2.43 ± 0.1. The protein stability index (ubr1∆) was 3.29 ± 0.07.
FSVRTKDSNKDVVVEGL [RPL10] showed a protein stability index (doa10∆) of 2.14 ± 0.051, a protein stability index (pdr5∆) of 2.32 ± 0.055 and a protein stability index (san1∆) of 2.13 ± 0.073. The protein stability index (ubr1∆) was 2.77 ± 0.054.
For LSINEKDFVTMAIEIIN [YCG1], the protein stability index (doa10∆) was 2.44 ± 0.082, the protein stability index (pdr5∆) was 2.38 ± 0.077 and the protein stability index (san1∆) was 2.14 ± 0.093. For the same sequence, the protein stability index (ubr1∆) was 2.15 ± 0.053.
ASLADVMSIESLVEVVF [FAS1] showed a protein stability index (doa10∆) of 2.89 ± 0.08, a protein stability index (pdr5∆) of 2.18 ± 0.067 and a protein stability index (san1∆) of 1.78 ± 0.091. For the same sequence, the protein stability index (ubr1∆) was 2.97 ± 0.062.
Sequence HGMSVDPRHIQLLGDVM [RPO31] has a protein stability index (doa10∆) of 2.73 ± 0.057, a protein stability index (pdr5∆) of 2.82 ± 0.062 and a protein stability index (san1∆) of 2.85 ± 0.049. It also gave a protein stability index (ubr1∆) of 2.98 ± 0.04.
TAVATLLKELSKNAQFI [SMC3] gave a protein stability index (doa10∆) of 2.88 ± 0.071, a protein stability index (pdr5∆) of 2.66 ± 0.052 and a protein stability index (san1∆) of 2.8 ± 0.049. The protein stability index (ubr1∆) was 2.66 ± 0.048.
With LFRAIYLYCLDNNITEM [YCG1] the protein stability index (doa10∆) was 2.08 ± 0.052, the protein stability index (pdr5∆) was 2.09 ± 0.044 and the protein stability index (san1∆) was 2.1 ± 0.061. For the same sequence, the protein stability index (ubr1∆) was 2.38 ± 0.05.
With RNVGKTLVNKSTGLKNA [RPS1B] the protein stability index (doa10∆) was 2.81 ± 0.098, the protein stability index (pdr5∆) was 2.72 ± 0.097 and the protein stability index (san1∆) was 2.59 ± 0.12. For the same sequence, the protein stability index (ubr1∆) was 2.96 ± 0.086.
PYLLETYANVLIPCKYL [RPN7] gave a protein stability index (doa10∆) of 1.32 ± 0.067, a protein stability index (pdr5∆) of 1.43 ± 0.063 and a protein stability index (san1∆) of 1.19 ± 0.099. For the same sequence, the protein stability index (ubr1∆) was 1.18 ± 0.062.
With KVLQLLRLTRINSGTFV [RPL7A] the protein stability index (doa10∆) was 1.8 ± 0.097, the protein stability index (pdr5∆) was 1.62 ± 0.093 and the protein stability index (san1∆) was 1.2 ± 0.17. The protein stability index (ubr1∆) was 1.07 ± 0.065.
SKIFRFQNSKSASLFKQ [RPL24A] showed a protein stability index (doa10∆) of 2.63 ± 0.097, a protein stability index (pdr5∆) of 3.04 ± 0.085 and a protein stability index (san1∆) of 2.54 ± 0.096. The protein stability index (ubr1∆) was 2.1 ± 0.073.
In the case of LLISDTESNELIQKLQN [IRR1], the protein stability index (doa10∆) is reported as 2.79 ± 0.076, the protein stability index (pdr5∆) is reported as 2.85 ± 0.084 and the protein stability index (san1∆) is reported as 2.38 ± 0.073. For the same sequence, the protein stability index (ubr1∆) was 2.9 ± 0.084.
For DFYTRHHFTCEITGTSC [ITC1], the protein stability index (doa10∆) was 1.43 ± 0.042, the protein stability index (pdr5∆) was 1.64 ± 0.045 and the protein stability index (san1∆) was 1.51 ± 0.094. It also gave a protein stability index (ubr1∆) of 1.65 ± 0.045.
